We go through one molecule from article PMC2894972, “Protein-Protein Interaction Antagonists as Novel Inhibitors of Non-Canonical Polyubiquitylation” (PLoS ONE, 2010).

The target of this experiment is T1, Ubc13 (human, UniProt P61088 1-152).
T1 construct: Ubc13, ubiquitin-conjugating enzyme (E2), human; also called purified Ubc13; source: recombinant, purified
T1 sequence (looked up): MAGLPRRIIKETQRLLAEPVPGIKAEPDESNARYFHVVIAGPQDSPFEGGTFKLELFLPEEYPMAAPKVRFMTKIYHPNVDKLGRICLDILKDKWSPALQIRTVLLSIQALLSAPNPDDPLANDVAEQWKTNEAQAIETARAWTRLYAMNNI
The experiment is described as follows: SPR; Uev1 immobilised on a Biacore CM5 chip (1179,1 RU); Ubc13 in the mobile phase; 10 mM HEPES, 0.15 M NaCl, pH 7.4; Biacore T100. The conditions noted are these: both partners purified.

What is called Kd is the constant that tells how readily two partners part at equilibrium.

B1: Uev1 (natural protein)
chain: not shown
notes: Uev1, ubiquitin-conjugating enzyme variant 1, human; also called recombinant Uev1; source: recombinant, purified
Molecule B1 yielded a Kd of 1 nM.
